The record followed here is US20190030126A1, “Inhibitors of the Interaction BCL-2 L10 / IP3 Receptors” (Universite Claude Bernard - Lyon 1, priority 2016, published 2019).

Where “and” joins values, the source holds several entries; their conditions need not be identical. Equal entries are not always repeated. No end group written: not given here.

In test [1] the target is T1, interaction of Bcl-2 L10/Nrh with the BD domain of the receptor IP3R1 (Homo sapiens, UniProt Q9HD36).
T1 construct: expressed in transfected cells; host or cells: HeLa
T1 sequence (Q9HD36 11-204): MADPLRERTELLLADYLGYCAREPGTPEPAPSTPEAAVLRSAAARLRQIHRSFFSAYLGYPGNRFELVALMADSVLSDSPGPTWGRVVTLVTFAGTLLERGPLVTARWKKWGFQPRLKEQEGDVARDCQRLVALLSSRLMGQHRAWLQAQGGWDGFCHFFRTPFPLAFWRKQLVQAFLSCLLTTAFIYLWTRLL
Put plainly: Immunoprecipitation (anti-HA) of the Flag-Nrh / HA-hBD interaction in HeLa cells co-transfected with peptide plasmids. Format: cell-based. To be noted: peptides Flag-tagged, fused to cytochrome b5 domain, plasmid ratio 1:2. From the text:
(B) Quantification of the Nrh-IP3R1 interaction by immunoprecipitation experiments with anti-HA antibodies in HeLa cells transfected with plasmids coding for Flag-Nrh, HA-hBD and the different point mutants of the peptides Nrh 1-23 Flag-tagged with a ratio of 1:2 (N=3).
FIG. 5B presents the ability of these different peptides to inhibit the interaction of Bcl-2 L10/Nrh with the BD domain of the receptor IP3R1. This interaction is quantified by the immunoprecipitation technique, the BD domain being tagged with an HA epitope and the protein Bcl-2 L10/Nrh being tagged with a Flag epitope.
HeLa cells are transfected with plasmids coding for Flag-Nrh, HA-hBD and the different point mutants of the peptide Nrh 1-23 Flag-tagged with a ratio of 1:2, and immunoprecipitation is carried out with an anti-HA antibody.

The target in test [2] is T2, interaction between the endogenous proteins Nrh and IP3R1 (Homo sapiens, UniProt Q9HD36).
T2 construct: endogenous in cells; host or cells: MDA-MB-231
T2 sequence (Q9HD36 11-204): T1 sequence (Q9HD36 11-204)
Put plainly: Proximity ligation assay (PLA) of endogenous Nrh and IP3R1 in MDA-MB-231 cells. Format: cell-based. To be noted: for inhibition of the Nrh/IP3R1 interaction relative to the limit value: conclusion of the PLA experiment; for percentage inhibition of the Nrh/IP3R1 interaction: with 488 nm flash. How it is done: (A) Proximity ligation assay (PLA) experiments allowing for the detection of the interaction between the endogenous proteins Nrh and IP3R1 in MDA-MB-231 cells.
The MDA-MB-231 cells are incubated for 4 h with the peptide TAT Nrh-1-23 (SEQ ID NO. 4) or the control peptide TAT-Nrh 1-23 Y16F (SEQ ID NO 12, 14 and 6). After 3 washes of the cells, a 488 nm laser is used to excite the fluorophore (FITC) present in the endosomes, rupture the endosomal membrane and release the TAT-FITC peptides into the cytosol. The cells are incubated for 12 h then fixed, and the interaction between Nrh and IP3R1 is quantified by PLA using a rabbit anti-Nrh primary antibody and a mouse anti-IP3R1 primary antibody. This step is followed by incubation with a mixture of anti-rabbit and anti-mouse secondary antibodies, each coupled to a complementary nucleotide probe. A step of ligation then amplification is then carried out in the presence of fluorescent nucleotides, making it possible to amplify a specific signal in the case of spatial proximity of the probes. The fluorescence signal, in which each dot corresponds to an interaction in the cell, is recorded by means of a Nikon NiE fluorescence microscope. The images are quantified by the Image J software, and the interaction score is represented on the graph as number of dots per cell (N=3).

The target in test [3] is endogenous protein Bcl-2 L10/Nrh (in cells) (human) (UniProt Q9HD36). Put plainly: cell-based or functional assay.
The next test deals with HeLa cells. Put plainly: Test of apoptosis (SR-FLICA, caspase activity) in transfected HeLa cells treated with thapsigargin. Format: cell-based, human. To be noted: 10 μM thapsigargin for 24 h; for potentiation of thapsigargin effect on caspase activity: HeLa cells transfected with peptide construct (fused to Cb5). How it is done: (B) Test of apoptosis (SR-FLICA) in response to 10 μM of thapsigargin for 24 h in HeLa cells transfected with the empty vector pCS2+ or the constructs coding for Nrh-WT (wild-type), Nrh-ActA, Nrh-cb5, Nrh-dTM or Nrh-dBH4 (N=3). ***, p<0.001;**, p<0.01; n.s. p>0.1 (Student t-test).
(C) Test of apoptosis (SR-FLICA) in response to 10 μM of thapsigargin for 24 h in HeLa cells transfected with the empty vector pCS2+ or the constructs coding for the peptides Nrh 1-23, Nrh 1-23 Y16F or Nrh 1-23 C20A (N=3). ***, p<0.001;**, p<0.01; n.s. p>0.1 (Student t-test).
The effects of these various proteins were observed after transfection of HeLa cells by the empty vector pCS2+ or with the constructs coding for Nrh, Nrh-ActA, Nrh-cb5, dTM or dBH4.

Test [4] has as its target endogenous protein Bcl-2 L10/Nrh (in cells) (human) (UniProt Q9HD36). Nature of the test: proximity ligation assay of endogenous Nrh and IP3R1, MDA-MB-231 cells; as a function of the negative control.
Test [5] has the same target. Put plainly: proximity ligation assay of endogenous Nrh and IP3R1, MDA-MB-231 cells; against the vehicle control.
The target is the same in test [6]. Put plainly: proximity ligation assay of endogenous Nrh and IP3R1, MDA-MB-231 cells; against the no-flash control.
Another test has as its target T3, Flag-Nrh (Bcl-2 L10) (Homo sapiens, UniProt Q9HD36).
T3 construct: expressed in transfected cells; host or cells: HeLa (cellular extracts)
T3 sequence (Q9HD36 1-204): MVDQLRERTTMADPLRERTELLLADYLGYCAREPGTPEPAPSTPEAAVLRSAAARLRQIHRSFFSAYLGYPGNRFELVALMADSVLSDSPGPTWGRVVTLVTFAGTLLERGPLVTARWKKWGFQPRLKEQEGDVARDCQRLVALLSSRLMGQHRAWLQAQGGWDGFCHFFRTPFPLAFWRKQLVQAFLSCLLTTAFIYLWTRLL
Put plainly: Streptavidin pull-down with biotin-labelled peptide, HeLa extracts expressing Flag-Nrh. Format: binding. To be noted: 5 μg of biotin-labelled peptide. How it is done:
(§1) (A) Streptavidin pull-down in HeLa cells transfected with either empty vector pCS2+, Flag-Nrh, HA-hBD or HA-BECN1, which cellular extracts were incubated or not with 5 μg of biotin-labelled Nrh 1-23 peptide.
(§2) (B) Streptavidin pull-down in HeLa cells transfected with either empty vector pCS2+, Flag-Nrh, or Flag-Nrz, which cellular extracts were incubated with 5 μg of biotin-labelled Nrh 1-23 peptide or Nrh 1-23 R6A Y16F double mutant peptide.
(§3) (A) HeLa cells were transfected with either empty vector pCS2+, Flag-Nrh, HA-hBD or HA-Beclin1 (referred to as HA-BECN1), a protein well known for its binding capacities to Nrh, then cellular extracts were incubated or not with 5 μg of biotin-labelled Nrh 1-23 wild-type peptide. Streptavidin is used for pulling-down the complexes comprising biotin-labelled Nrh peptide.
(§4) Streptavidin is used for pulling-down the complexes comprising biotin-labelled Nrh peptide.

In test [7] the target is T4, Nrh homodimer (Flag-Nrh / HA-Nrh) (Homo sapiens, UniProt Q9HD36).
T4 construct: the ability of the whole protein Nrh (Bcl-2 L10) to dimerise
T4 sequence (Q9HD36 11-204): T1 sequence (Q9HD36 11-204)
Nature of the test: Co-immunoprecipitation (anti-HA) of Flag-Nrh and HA-Nrh: Nrh homodimerisation. Format: binding. To be noted: incubation with the peptide. From the text:
Quantification of the interaction between Flag-Nrh and HA-Nrh using co-immunoprecipitation with anti-HA antibody.
FIG. 7 illustrates the quantification of the interaction between Flag-Nrh and HA-Nrh using co-immunoprecipitation with anti-HA antibody. Formation of a Nrh homodimer is observed.

In the next test the test system is Flag-Nrz. Put plainly: Streptavidin pull-down with biotin-labelled peptide, HeLa extracts expressing Flag-Nrz. Format: binding, zebrafish. To be noted: 5 μg of biotin-labelled peptide. How it is done:
as §2, §4

Test [8] has as its target T5, HA-hBD (IP3 binding domain of IP3R1) (Homo sapiens, UniProt Q14643).
T5 construct: extending from residue 226 to residue 565 in the human protein; expressed in transfected cells; host or cells: HeLa (cellular extracts)
Put plainly: Streptavidin pull-down with biotin-labelled peptide, HeLa extracts expressing HA-hBD. To be noted: 5 μg of biotin-labelled peptide. How it is done:
as §1, §3

For test [9], the target named is T6, HA-hBD (IP3 ligand binding domain of human IP3R1 tagged with an HA epitope) (human, UniProt Q14643-2 226-565, limits assumed).
T6 construct: Expressed in HeLa cells; also called HA-hBD IP3R1; BD domain of the receptor IP3R1
T6 sequence (Q14643 other isoform, or with tags, fused parts or gaps limits assumed): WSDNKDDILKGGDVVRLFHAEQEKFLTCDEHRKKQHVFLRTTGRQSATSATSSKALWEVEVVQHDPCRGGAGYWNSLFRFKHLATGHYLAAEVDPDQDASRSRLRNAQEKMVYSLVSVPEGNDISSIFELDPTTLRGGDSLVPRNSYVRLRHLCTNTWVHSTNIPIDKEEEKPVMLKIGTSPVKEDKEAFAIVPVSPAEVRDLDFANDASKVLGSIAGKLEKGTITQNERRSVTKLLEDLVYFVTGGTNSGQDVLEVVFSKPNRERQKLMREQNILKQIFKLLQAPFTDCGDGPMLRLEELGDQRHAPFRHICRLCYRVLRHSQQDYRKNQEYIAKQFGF
Nature of the test: streptavidin pull-down from extracts of transfected HeLa cells.

Where [10] appears, read: 488 nm flash used to release the peptide.

T5 sequence (Q14643 226-565): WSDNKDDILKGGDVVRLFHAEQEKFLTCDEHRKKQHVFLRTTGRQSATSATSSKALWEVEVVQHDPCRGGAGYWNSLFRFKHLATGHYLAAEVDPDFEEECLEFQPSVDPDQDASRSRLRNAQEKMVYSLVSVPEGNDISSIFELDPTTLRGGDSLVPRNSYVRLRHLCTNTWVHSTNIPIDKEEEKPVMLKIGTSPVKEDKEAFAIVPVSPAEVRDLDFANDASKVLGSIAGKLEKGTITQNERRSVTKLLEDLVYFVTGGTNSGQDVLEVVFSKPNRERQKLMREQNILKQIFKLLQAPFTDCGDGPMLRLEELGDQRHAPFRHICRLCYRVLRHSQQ

Regarding “MADPLAERTELLLADYLGYCARE (Synthetic peptide Peptide R6A) [Nrh R6A, point mutant of Nrh 1-23, non-functional]”, the “ability to inhibit the Nrh/IP3R1 BD interaction (Flag-Nrh band on Western blot after anti-HA immunoprecipitation)” value in [1] is “still visible, albeit faintly”. With “TAT Nrh Y16F: combination of TAT (SEQ ID NO. 12), a spacer (SEQ ID NO. 14) and SEQ ID NO. 6 without the methionine; control outside the invention (RKKRRQRRRGGSGGADPLRERTELLLADFLGYCARE)”, the “PLA interaction score Nrh/IP3R1” value in test [2] (setting [10]) is given as 65±5 dots per cell. Besides, the “inhibition of the Nrh/IP3R1 interaction relative to the limit value” in [2] is given as below 30%. “peptide Nrh 1-23 fused at the C-terminal end with the cytochrome b5 targeting domain, Flag-tagged” yielded a caspase activity (SR-FLICA apoptosis test), HeLa cells, 10 µM thapsigargin for 24 h in test [3] of 2 fold.

For the molecule “MADPLRERTELLLADYLGYAARE (Synthetic peptide C20A) [Nrh C20A, point mutant of Nrh 1-23, functional]”, the “potentiation of thapsigargin effect on caspase activity” value in the test with HeLa cells is given as “this effect is maintained”. In [1], the “ability to inhibit the Nrh/IP3R1 BD interaction (Flag-Nrh band on Western blot after anti-HA immunoprecipitation)” value is “dissociate the Nrh/IP3R1 interaction”. With “peptide TAT-Nrh 1-23 (TAT-spacer-domain of binding to IP3Rs without methionine), FITC-coupled”, the percentage inhibition of the Nrh/IP3R1 interaction in test [4] was 86% and 87%. With “MADPLRERTELLLADFLGYCARE (Synthetic peptide Y16F) [Nrh Y16F, point mutant of Nrh 1-23, non-functional]”, the “ability to inhibit the Nrh/IP3R1 BD interaction (Flag-Nrh band on Western blot after anti-HA immunoprecipitation)” value in test [1] was “still visible, albeit faintly”. Take “RKKRRQRRRGGSGGADPLRERTELLLADYLGYCARE [TAT Nrh 1-23]”: the results for the “PLA interaction score Nrh/IP3R1” value in test [2] (setting [10]) and in test [2] (in the absence of 488 nm flash (no release of the peptides into the cytosol)) were 11±1 dots per cell and 87±6 dots per cell, respectively. For the same molecule, in test [2], the “inhibition of the Nrh/IP3R1 interaction relative to the limit value” is reported as “at least 30%”. Further, the “percentage inhibition of the Nrh/IP3R1 interaction” value in test [2] (negative control = TAT Nrh 1-23 without flash (87 dots per cell)) came to 87%; in test [2] (negative control = vehicle (80 dots per cell)), 86%. Regarding “control peptide TAT-Nrh 1-23 Y16F, FITC-coupled”, the percentage inhibition of the Nrh/IP3R1 interaction in test [5] was 18.8%; in test [6], 25%. For “Nrh 1-23 R6A Y16F: biotin-labelled Nrh 1-23 R6A Y16F double mutant peptide (MADPLAERTELLLADFLGYCARE; also: biotin-labelled (position not given here))”, in the test with Flag-Nrh (Bcl-2 L10), the “interaction with Nrh (pull-down)” value was “reduced interaction with Nrh”. As for “MADPLRERTELLLAAYLGYCARE (Synthetic peptide D15A) [Nrh D15A, point mutant of Nrh 1-23, functional]”, in test [1], the “ability to inhibit the Nrh/IP3R1 BD interaction (Flag-Nrh band on Western blot after anti-HA immunoprecipitation)” value is recorded as “dissociate the Nrh/IP3R1 interaction”. As to MADPLRERTELLLADYLGYCARE [Nrh 1-23], the “prevention of Nrh homodimerisation” value in test [7] was “can be prevented”. The “potentiation of thapsigargin effect on caspase activity” value in the test with HeLa cells is listed as “virtually doubled”. In addition, the “interaction with Nrz (pull-down)” value in the test with Flag-Nrz is given as “not Nrz”. Besides, in test [8], the “interaction with HA-hBD (pull-down)” value is “not with HA-hBD”. Besides, in test [1], the “ability to inhibit the Nrh/IP3R1 BD interaction (Flag-Nrh band on Western blot after anti-HA immunoprecipitation)” value is reported as “dissociate the Nrh/IP3R1 interaction”. The “interaction with Nrh (pull-down)” value in the test with Flag-Nrh (Bcl-2 L10) is “only able to interact with Nrh”. With `C/C=C(/C)C(=O)O[C@H]1C(C)=C2[C@H]([C@@H]1OC(=O)CCCCCCC)[C@@](C)(OC(C)=O)C[C@H](OC(=O)CCC)[C@@]1(O)[C@H]2OC(=O)[C@@]1(C)O` [thapsigargin, reference compound], the caspase activity entry with HeLa cells (HeLa control cells (empty vector pCS2+)) was “greatly induced”.

B1: Bcl-2 L10/Nrh-WT: the human Bcl-2 L10/Nrh protein in its wild-type, whole form, expressed from a transfected construct (protein, UniProt Q9HD36 1-204, looked up)
chain: T3 sequence (Q9HD36 1-204)
modifications: full-length
notes: the human Bcl-2 L10/Nrh protein in its wild-type, whole form, expressed from a transfected construct
As to B1, the “effect on thapsigargin-induced caspase activity (apoptosis-blocking effect)” value in the test on HeLa cells (HeLa cells overexpressing Nrh construct) is on record as “reduced by half”.

B2: biotin-labelled Nrh 1-23 wild-type peptide (peptide)
peptide: MADPLRERTELLLADYLGYCARE
modifications: also: biotin-labelled (position not given here)
notes: 3 (same without the first methionine); also called biotin-labelled Nrh 1-23 peptide
As for B2, the binding result in test [9] was “no binding (tested: 5 µg of biotin-labelled peptide)”.
